Test results as given in paper PMC7952403 (Nature Communications, 2021).

Molecular target: SARS-CoV-2 RBD-SD1, HEK cell produced (SPR) (Severe acute respiratory syndrome …, UniProt P0DTC2)
Assay: SPR
Conditions: both partners purified

B1: STE73-2E9 IgG (antibody, V domains shown)
VH: QVQLVQSGAEVKKPGASVKVSCKASGYTFTSYGISWVRQAPGQGLEWMGWISAYNGNTNYAQKLQGRVTMTTDTSTSTAYMELRSLRSDDTAVYYCARGKFDYWGQGTLVTVSS
VL: QSVLTQPPSVSEAPSQRVTISCSGSSSNIGNNAVNWYQQLPGKAPKLLIYYDDVLPSGVSDRFSGSKSGTSASLAISGLQSGDEADYYCAAWDDSLSGVVFGGGTKLTVL
notes: source: Expi293F, transfected, purified (Protein A); copies: 2 + 2
How did the Kd turn out when B1 was run?
The Kd was 2 nM.
